Where no end group is shown, it is not given here. [ ]: non-standard residue; d: D form. The star is where a group is joined. NMeF = CN[C@@H](Cc1ccccc1)C(=O)O; boroPro = OB(O)[C@@H]1CCCN1*
biological target: Dipeptidyl amino peptidase type IV (DPP IV); assay: cell-based or functional assay

Binder | IC50 at ten minutes, pH 2 | IC50 at ten minutes, pH 8 | IC50, pH 2 (Tetrapeptide Prodrugs) | IC50, pH 8 (Tetrapeptide Prodrugs)
AAV[boroPro] [AlaAlaValboroPro] | 2 µM | 25 µM | – | –
[NMeF]PA[boroPro] [N-Me-Phe-PRO-ALA-PRO boronic acid] | 2 µM | 2.7 µM | – | –
APP[boroPro] [AlaProProboroPro] | 8.3 µM | – | 8 mM | –
GPP[boroPro] [GlyProProboroPro] | 8.6 µM | 20 µM | 9 µM | –
GPV[boroPro] [GlyProValboroPro] | 17 nM | 46 nM | 17 nM | 46 nM
YPA[boroPro] [Tyrosine-proline-alanine-proline boronic acid] | 15 nM | 17 nM | – | –
APV[boroPro] [AlaProValboroPro] | 20 nM | 21 nM | 20 nM | 21 nM
PPP[boroPro] [ProProProboroPro] | 10 µM | – | 10 µM | –
FPA[boroPro] [Phenylalanine-proline-alanine-proline boronic acid] | 6 nM | 8 nM | – | –

— patent US20170226155A1
